Results published in the supplement of paper PMC7877785.
± gives the uncertainty stated by the source.

Assay: self-splicing fitness, log relative to wild type (ln ratio); higher = more splicing; Tetrahymena group I intron in knt gene, E. coli kanamycin selection, DiMSum; sequences stand for … in CUCUCU…GGAGGGAAAAGUUAUCAGGCAUGCACCUGGUAGCUAGUCUUUAAACCAAUAGAUUGCAUCGGUUUAAAAGGCAAGACCGUCAAAUUGCGGGAAAGGGGUCAACAGCCGUUCAGUACCAAGUCUCAGGGGAAACUUUGAGAUGGCCUUGCAAAGGGUAUGGUAAUAAGCUGACGGACAUGGUCCUAACCACGCAGCCAAGUCCUAAGUCAACAGAUCUUCUGUUGAUAUGGAUGCAGUUCACAGACUAAAUGUCGGUCGGGGAAGAUGUAUUCUUCUCAUAAGAUAUAGUCGGACCUCUCCUUAAUGGGAGCUAGCGGAUGAAGUGAUGCAACACUGGAGCCGCUGGGAACUAAUUUGUAUGCGAAAGUAUAUUGAUUAGUUUUGGAGUACUCGUGGUCG
Outline: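 DiMSum derived fitness as the error-weighted combination of fold changes across replicates, kanamycin versus no kanamycin, normalised to wild type. E. coli BL21(DE3) held the library, which randomised all eight P1ex-region intron nucleotides within the knt kanamycin-resistance gene on pET-22b(+). Six replicate transformations grew overnight at 37°C or 30°C on LB agar with or without 25 μg/mL kanamycin, also containing 100 μg/mL carbenicillin, 50 μM IPTG and 0.2% rhamnose, and pooled colonies were amplicon-sequenced on an Illumina HiSeq 2500.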

| Sequence | self-splicing fitness (ln) (30 °C) | self-splicing fitness (ln) (37 °C) |
| --- | --- | --- |
| AAACAGCAAUAUUACGUCAC | -4.1 ± 0.23 | -2.59 ± 0.2 |
| UUCAAGCAAUAUUACGAACA | -2.07 ± 0.2 | -0.752 ± 0.13 |
| GGCUAGCAAUAUUACGUCGC | -1.5 ± 0.28 | -0.438 ± 0.22 |
| AUCCAGCAAUAUUACGCUCU | 0.335 ± 0.14 | 0.709 ± 0.15 |
| CAUAAGCAAUAUUACGAAGG | -1.56 ± 0.11 | -1.55 ± 0.15 |
| CCUCAGCAAUAUUACGUCCU | -4.39 ± 0.31 | -2.68 ± 0.3 |
| CCGCAGCAAUAUUACGGAUG | -1.99 ± 0.12 | -1.54 ± 0.13 |
| UAAAAGCAAUAUUACGACGG | 0.0981 ± 0.087 | -0.342 ± 0.13 |
| GCUUAGCAAUAUUACGAAGA | 0.387 ± 0.24 | -0.855 ± 0.15 |
| CUGGAGCAAUAUUACGUGAG | -0.772 ± 0.049 | -0.213 ± 0.063 |
| GGCAAGCAAUAUUACGGUUU | -0.376 ± 0.052 | 0.232 ± 0.069 |
| AGGAAGCAAUAUUACGUCUA | -0.335 ± 0.092 | -0.143 ± 0.1 |
| GCGCAGCAAUAUUACGCAUC | -0.685 ± 0.092 | -0.339 ± 0.098 |
| ACGAAGCAAUAUUACGGCCA | -0.778 ± 0.091 | 0.402 ± 0.095 |
| AUUCAGCAAUAUUACGAGUC | -3.54 ± 0.26 | -2.13 ± 0.43 |
| UUUUAGCAAUAUUACGUCCU |  | 0.494 ± 0.32 |
| AACGAGCAAUAUUACGGGUA | -2.96 ± 0.17 | -0.912 ± 0.11 |
| CACAAGCAAUAUUACGCGAC | -2.93 ± 0.15 | -3.22 ± 0.27 |
| GCAGAGCAAUAUUACGCGUU | -1.48 ± 0.11 | -2.09 ± 0.16 |
| GAACAGCAAUAUUACGAUAU | -1.36 ± 0.061 | -0.525 ± 0.074 |
| AGCCAGCAAUAUUACGGACC | -0.609 ± 0.095 | -0.386 ± 0.11 |
| GCCCAGCAAUAUUACGUCUG | -3.86 ± 0.14 | -2.73 ± 0.17 |
| CAACAGCAAUAUUACGUUGU | -4.21 ± 0.18 | -3.06 ± 0.16 |
| CACCAGCAAUAUUACGCCCU | -4.12 ± 0.26 | -0.642 ± 0.11 |
| CUUGAGCAAUAUUACGUGCU | -1.93 ± 0.11 | -3.89 ± 0.42 |

| Sequence | self-splicing fitness (ln) (30 °C) | self-splicing fitness (ln) (37 °C) |
| --- | --- | --- |
| CCACAGCAAUAUUACGGACA | -3.12 ± 0.21 | -2.51 ± 0.18 |
| UUAGAGCAAUAUUACGCGUA | -1.59 ± 0.11 | -0.559 ± 0.13 |
| UCAAAGCAAUAUUACGGUUG | -1.38 ± 0.086 | -0.732 ± 0.12 |
| CCAAAGCAAUAUUACGCUGG | -4.28 ± 0.23 | -2.46 ± 0.17 |
| CUUCAGCAAUAUUACGUGAA | -2.71 ± 0.12 | -2.72 ± 0.2 |
| AUGAAGCAAUAUUACGGCCC | -0.0924 ± 0.12 | 0.156 ± 0.17 |
| UCGUAGCAAUAUUACGUUCU | -1.6 ± 0.23 | -1.49 ± 0.24 |
| AGACAGCAAUAUUACGGCGG | -2.25 ± 0.13 | -0.609 ± 0.14 |
| UUUCAGCAAUAUUACGGGAA | -1.96 ± 0.2 | -1.93 ± 0.21 |
| GGCAAGCAAUAUUACGGUCA | -0.571 ± 0.09 | 0.329 ± 0.096 |
| CGAGAGCAAUAUUACGGGAA | -1.44 ± 0.33 | -1.71 ± 0.44 |
| UCCCAGCAAUAUUACGCCUU | -3.44 ± 0.2 | -1.28 ± 0.15 |
| GAUGAGCAAUAUUACGCCAU | -2.56 ± 0.14 |  |
| AUAAAGCAAUAUUACGACAA | -0.556 ± 0.086 | 0.621 ± 0.12 |
| UUAGAGCAAUAUUACGGCUG | -0.433 ± 0.12 | 0.354 ± 0.17 |
| GCAAAGCAAUAUUACGCAUA | -1.86 ± 0.14 | -1.43 ± 0.18 |
| UCCGAGCAAUAUUACGACUA | -2.51 ± 0.28 | -2.21 ± 0.27 |
| GAUAAGCAAUAUUACGGAUG | -2.76 ± 0.11 | -1 ± 0.11 |
| AUGCAGCAAUAUUACGUGGU | -2.7 ± 0.095 | -2.18 ± 0.1 |
| ACGCAGCAAUAUUACGUCGA | -2.34 ± 0.11 | -1.34 ± 0.092 |
| CGCGAGCAAUAUUACGAAUA | -2.84 ± 0.35 | -2.25 ± 0.38 |
| UUAUAGCAAUAUUACGACUU | -1.85 ± 0.28 | -0.00223 ± 0.29 |
| UUUAAGCAAUAUUACGGGAC | -1.77 ± 0.16 | -2 ± 0.42 |
| GGGUAGCAAUAUUACGUAAA | -0.962 ± 0.13 | -0.0364 ± 0.15 |
| CCGCAGCAAUAUUACGUCAC | -4.14 ± 0.19 | -2.84 ± 0.22 |

| Sequence | self-splicing fitness (ln) (30 °C) | self-splicing fitness (ln) (37 °C) |
| --- | --- | --- |
| CGCGAGCAAUAUUACGUAAC | -2.76 ± 0.41 | -1.76 ± 0.27 |
| UAUUAGCAAUAUUACGACAG | -1.58 ± 0.18 | -0.556 ± 0.19 |
| ACACAGCAAUAUUACGCCCG | -0.876 ± 0.092 | -0.533 ± 0.12 |
| GGGAAGCAAUAUUACGGGUC | -2.67 ± 0.3 | -2.08 ± 0.33 |
| UCGUAGCAAUAUUACGGAAG | -2.55 ± 0.29 | -1.94 ± 0.28 |
| ACUUAGCAAUAUUACGAACC | -0.695 ± 0.21 | -0.285 ± 0.36 |
| UGAAAGCAAUAUUACGAGAG | -4.15 ± 0.33 | -1.61 ± 0.14 |
| GACCAGCAAUAUUACGAUGG | -3.69 ± 0.19 | -2.82 ± 0.21 |
| CGUAAGCAAUAUUACGCCUG | -1.21 ± 0.11 | -0.643 ± 0.12 |
| UCUGAGCAAUAUUACGGGCA | -3.41 ± 0.33 | -2.49 ± 0.16 |
| CUUAAGCAAUAUUACGGAUG | -0.76 ± 0.056 | -0.0373 ± 0.077 |
| CGAAAGCAAUAUUACGAGCG | -0.778 ± 0.098 | -0.277 ± 0.11 |
| AGCUAGCAAUAUUACGAGGA | -3.9 ± 0.35 | -2.42 ± 0.42 |
| AAUGAGCAAUAUUACGGUGA | -3.31 ± 0.27 | -2.26 ± 0.42 |
| CGCGAGCAAUAUUACGGGUC | -3.27 ± 0.2 | -2.38 ± 0.31 |
| GAAUAGCAAUAUUACGCCGA | -1.62 ± 0.31 | 0.319 ± 0.22 |
| CGUGAGCAAUAUUACGCAAU | -2.52 ± 0.14 | -2.75 ± 0.25 |
| CGCAAGCAAUAUUACGUCGC | -2.24 ± 0.19 | -3.19 ± 0.29 |
| CUUAAGCAAUAUUACGUAUA | -2.9 ± 0.23 | -3.19 ± 0.29 |
| AUAAAGCAAUAUUACGCUUU | -4.03 ± 0.24 | -1.59 ± 0.23 |
| AGCCAGCAAUAUUACGUGUG | -3.01 ± 0.09 | -1.61 ± 0.086 |
| CUUGAGCAAUAUUACGGUGC | -3.34 ± 0.35 | -2.19 ± 0.42 |
| UUCUAGCAAUAUUACGUAAA | -1.56 ± 0.26 | -0.54 ± 0.23 |
| CGACAGCAAUAUUACGUCUU | -0.458 ± 0.066 | -0.212 ± 0.073 |
| GCGAAGCAAUAUUACGGUGC | -3.75 ± 0.18 | -2.95 ± 0.18 |
